Test results taken from PMC5387032 (Photosynthesis Research, 2017).
One block for each binder: values may come before it.

How the values were obtained:
[1] = target: T1, RbcL from Thermosynechococcus elongatus, made in E. coli (Thermosynechococcus vestitus (strain …, UniProt Q8DIS5)); experiment: co-expression in E. coli with co-purification of the complex; native PAGE
T1 chain: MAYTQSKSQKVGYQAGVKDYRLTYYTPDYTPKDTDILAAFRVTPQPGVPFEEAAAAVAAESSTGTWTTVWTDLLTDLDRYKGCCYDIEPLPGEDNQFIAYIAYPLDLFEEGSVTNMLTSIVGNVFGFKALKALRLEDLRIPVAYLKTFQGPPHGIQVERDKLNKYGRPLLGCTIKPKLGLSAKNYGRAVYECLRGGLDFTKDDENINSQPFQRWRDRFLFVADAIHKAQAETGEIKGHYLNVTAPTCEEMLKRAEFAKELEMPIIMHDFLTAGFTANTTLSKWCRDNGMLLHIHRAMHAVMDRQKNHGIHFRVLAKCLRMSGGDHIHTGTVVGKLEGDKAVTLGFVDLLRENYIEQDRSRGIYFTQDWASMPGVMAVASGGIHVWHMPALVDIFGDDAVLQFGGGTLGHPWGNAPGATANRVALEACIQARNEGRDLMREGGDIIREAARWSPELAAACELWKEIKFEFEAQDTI

[2] = target: the molecule itself; experiment: native gel or EMSA; raf1 from Synechocystis co-expressed with rbcL genes in E. coli (or rbcL alone); crude extracts separated by native PAGE and probed with anti-RbcL or anti-RAF1 antibodies

binding result [1]: binds
B1: RAF1 from Synechocystis sp. PCC 6803, untagged, made in E. coli (protein)
chain: MTHSPESNPTVSAAEAAELIRSLLHKEGTWVDWGKKCQQLQKAGYGAEEIFEQSGFQKVQQNLVIVASQVYESLVKQGIDETVLSYYRGPKSDVLYELRILNHQQRAIAAVEAQQKNLAADEAKELAKAFQEFGYLSQLPEGFTDHPGDALAYQCWKLARQKKNLPERTRLIVKGLKFAHSPNARQAIEKLLTDLTAQPSRKAPLVPVFRLEEDQEAARLIPVAGTFPLQPQAVQAVQSLEQVEPFGLVSYQGEGAVVPVPQWQAILTAEDPVAIFCPAGQVSESLARKDEQVLVVVDRSKKIWNDGSYFLLNQGETVAIQWCETEPEREILAQVVLVLRPKKIFDANNLREPWQMDD

B2: RbcL from Thermosynechococcus elongatus, made in E. coli (natural protein, UniProt Q8DIS5 1-475, looked up)
chain: T1 chain
notes: Ribulose-1,5-bisphosphate carboxylase/oxygenase large subunit, Thermosynechococcus elongatus; rbcL gene in the previously described pUC18rbcL plasmid (Tarnawski et al. 2008); also called RbcLTe; Te; source: E. coli Rosetta, expressed alone or co-expressed with raf1 or rbcX from Synechocystis, in crude extract; complexes purified (ammonium sulfate, Q-Sepharose)
stoichiometry N [2]: 8
